Results as given in the DeepSol protein solubility set.

Assay: soluble on expression in E. coli; label from the status in PepcDB or PDB records

Sequence | soluble on expression in E. coli
GPGSMSGGLPRQFVLKVERHVPVNKGMGLAYPTVPGGSDVADADATPHAGAGERHQSNEAGGDMASGTLKDEAGSIHLSHEKETQTEEVPLPTCEANACDVDGTHCLSVDALDMAVRSNGAALRQMRSSSHLTAAFHTSASDDYGDSISPNPSDRQSFIGSLRVSYVELMSGESIPVYFPPSLGTSGGVEGKTMTLSEDLGCENQ | not soluble
MKQFKRGIERDGTGFVVLMAEEAEDMWHIYNLIRIGDIIKASTIRKVVSETSTGTTSSQRVHTMLTVSVESIDFDPGAQELHLKGRNIEENDIVKLGAYHTIDLEPNRKFTLQKTEWDSIDLERLNLALDPAQAADVAAVVLHEGLANVCLITPAMTLTRAKIDMTIPRKRKGFTSQHEKGLEKFYEAVSTAFMRHVNLQVVKCVIVASRGFVKDAFMQHLIAHADANGKKFTTEQRAKFMLTHSSSGFKHALKEVLETPQVALRLADTKAQGEVKALNQFLELMSTEPDRAFYGFNHVNRANQELAIETLLVADSLFRAQDIETRRKYVRLVESVREQNGKVHIFSSMHVSGEQLAQLTGCAAILRFPMPDLDDEPMDEN | not soluble
SNAHKGTLYVVATPLGNLDDMTFRAVNTLRNAGAIACEDTRRTSILLKHFGIEGKRLVSYHSFNEERAVRQVIELLEEGSDVALVTDAGTPAISDPGYTMASAAHAAGLPVVPVPGA | soluble
MKINWTEVKEKIRPQISKPSYETWFTNTTVYLEDDILTIYCPNEFARDWLESHYKELVFNTLREMFNTTFEIQFDLCNGEPSNLKDVQKEKLSSWDEVKKALRPKIAEKTFMTWIRNTNATIKDNKVIIFCEDAFHRDLLEGEYKNIISSTVQKITDEEYQIWFEIESSATSNAQVHHVKNNQRTSGQEESKTIWNKIKDKIQLKISRPSYETWVKETTARINEDSLIIYFENEFQQEWVKKSYKDLISQIAKELTGNTYEIQFELKSNTTSNNEKSTIKDITSELGEQFKVSNNSLKYNDVDESNKRIRALEEKIMNLEKVIGTLVEKLDAVELKTQLEKLEHHHHHH | not soluble
SLRECELYVQKHNIQALLKDSIVQLCTARPERPMAFLREYFEKLEKEEAK | soluble
AIAAELGLNEHHQNEVINYMRFARSKRGLRLKTVDSCFQDLKESRLVEDTFTIDEVSEVLNGLQAVVHSEVESELINTAYTNVLLLRQLFAQAEKWYLKLQTDISELENQELLEQVAEFEKAEITSSNKKPILDVTKPKLAPLNEGGTAELLNEEILRLQEENEKLKSRLKTIEIQATNALDEKSKLEKALQDLQLDQGNQKDFIKAQDLSNLENTVAALKSEFQKTLNDKTENQKSLEENLATAKHDLLRVREQLHMAEKELEKKFQQTAAYRNMKEILTKKNDQIKDLRKRLAQYEPED | soluble
GPGSMPPKSAVKKVDSAAATGKRKKLSFAESTVKAAAAAIQTTHVNVPVRAAAKHAPLAAAPRKKGQNAKKTTATTSSAARQRAATDLKRSGIVKAKRAEEEVAAPPVPSDEENSRDDEDDMLNGGAAVDSDTDDLSDMADRTPSDDELGAGKQASSSASRQRDSNGTVEPYRAVRLSFLPPEFQEPQLYKFLNQFGATVLNCFCVRSKRTHRSRGIAYVEFDKESAIPLVVEECNGMVLGGKAVRARAVTMRRRMPSRQMVDRRRALAYAYKTRGAPLKQHDVRRKGPVGLLIKAVRTEKNNNNYLKSLGIDFQTDFFQSQLATLPPVLLKKKRSRSKKSEKGTVATAGMAKAVVKTTDIATVASKSSPKRATRKAPATKTK | soluble
MHLHFTPRQIVEKLDQYIIGQKDAKKAVAVALRNRYRRSKLAENLRDEIAPKNILMIGPTGVGKTEVARRMAKLVGAPFIKVEATKFTEVGYVGRDVESMVRDLVETSVRIVKEEMVVKVQDKAEEQANQRLVEILVPSPEKQSGFKNPLEMLFGGTQNSNQTTDSQEDVEIEKKRQDVERKLAAGLLEDEIVSIEVTEQQSSMFDMLQGTGMEQMGMNFQDALGSFMPKKTKKRKLSVKEARKVLTNEEAQRLIDMDEVTQEAVYRAEQLGIIFIDEIDKIAGKQSNSVDVSREGVQRDILPIVEGSNVATKYGSVKTDYILFVAAGAFHMSKPSDLIPELQGRFPIRVELTKLSTDDFVKILIEPDNALIKQYMALLATEGIEIEFSDEAIRKIAEIAYQVNQDTDNIGARRLHTIMEKLLEDLSFEASEITLEKITITPQYVEEKLATIAKNKDVSQFIL | not soluble
MGSNGGGGGGGKQVLWEFHATGPRNISNPSWRDLIRSSWTDPNYRRIAVSCFVQAAYLLELDRQEKRNGESALAPNWWKPFKYKLVRPLIDSRDGSIYGVLLEWDQLAALSDLIVLRPNGAPKVVLAIRGTVLKQSTVVRDLEDDFRFFTMESLRGSVRFTGALEALKSAIDKRGSNNVCIAGHSLGAGFALQVGKTLAQDGIFVECHLFNPPSVSLGMGLRKLQEKAGKVLKRYVSGSSSNATELSHPTEDGGAASEIGEEKLIKEVKRWVPNLYINSCDYICCFYADRSGVATVTAEKHDGHSGTHSKLFVIAKGPKKFLEAHGLQQWWSDDYELQLAVHDSKLMYRHLKSLYVNES | soluble
MIYMSEIIEVIYEDGVLKPLKPLKIKGKKRLKIKIVNDDVEEFLKSMIIKKCKDIDYKKLKEAYYESFLEHHHHHH | not soluble
MNEIKNLKQYSKAAERFEGAHLLCPGCAHGMIVREVLNATDDPLILSSATGCLEVSTAVYPYTSWDVPWIHIGFENSSTAVAGAEAMYKALERKGKLYSEKKPKFVAFGGDGSTYDIGFQYISGCFERGHNMTYICLDNEVYANTGGQRSGSTPIGASTTTTPAGRVSYGKKDKKKDILQIMAAHGAPYVAQVAPNKWKDMAKKLKMALETEGPTFINAMSACTTEWKFESNLTVEVSDLAVDSLVFPLYEIINGTELNITYRPKNIVPVRDYLAAQGRFKHLFKKENEHIIEQWQKEVDARWVYLQKREEARV | not soluble
MILVTGSSGQIGTELVPYLAEKYGKKNVIASDIVQRDTGGIKFITLDVSNRDEIDRAVEKYSIDAIFHLAGILSAKGEKDPALAYKVNMNGTYNILEAAKQHRVEKVVIPSTIGVFGPETPKNKVPSITITRPRTMYGVTKIAAELLGQYYYEKFGLDVRSLRYPGIISYKAEPTAGTTDYAVEIFYYAVKREKYKCYLAPNRALPMMYMPDALKALVDLYEADRDKLVLRNGYNVTAYTFTPSELYSKIKERIPEFEIEYKEDFRDKIAATWPESLDSSEASNEWGFSIEYDLDRTIDDMIDHISEKLGIEGKHAL | soluble
NRANPDPNCCLGVFGLSLYTTERDLREVFSKYGPIADVSIVYDQQSRRSRGFAFVYFENVDDAKEAKERANGMELDGRRIRV | soluble
MEGVQEVEIDAPLSGWHPAEGEDASFSQSINYPASSVNMADDQNISAQIRGKIKNYAAAGKVQQGRLVVNGASMPQRIESDGSFARPYIFTEGSNSVQVISPDGQSRQKMQFYSTPGTGTIRARLRLVLSWDTDNTDLDLHVVTPDGEHAWYGNTVLKNSGALDMDVTTGYGPEIFAMPAPVHGRYQVYINYYGGRSETELTTAQLTLITDEGSVNEKQETFIVPMRNAGELTLVKSFDWLEHHHHHH | soluble
MIRKCTDHGYFRGGSCQQCKRPGRYVLDDGREEKLGRFVSGTLRHFPASAGVKMDKYGWIDLNAFCEVMKKRYNWMRKEYLYALVESDEKGRYQISGPMIRARYGHSVNVDLDYDESDTPYVYYGASPEEVDVLLENGIFPIKQRYVHLSTTYEKAAEVALIHTESPVILQVDAFRAQEDGISLKLATDYIVLAEKIPPDYLFVLEDLEHHHHHH | soluble
